Measured values taken from publication PMC11169713 (Frontiers in Immunology, 2024).
Changes are numbered by the printed parent chain.

Experiments:
[1] = molecular target: biotinylated H5 A/Indonesia/5/2005 hemagglutinin (Influenza A virus A/Indonesia/5/2005 …, UniProt A5A5L7, strain, biotin (site not stated))
[2] = molecular target: biotinylated H1 A/California/04/2009 hemagglutinin (Influenza A virus A/California/04/2009 …, UniProt C3W5S1, strain, biotin (site not stated))
[3] = molecular target: biotinylated H7 A/Shanghai/02/2013 hemagglutinin (Influenza A virus A/Shanghai/02/2013 …, UniProt R4NN21, strain, biotin (site not stated))

Measured: binding result

B1: L5A7.1 (antibody, V domains shown)
VH: QVQLQQSGPGLVKPSQTLSLTCVISGDSVSSNSAAWDWIRQSPSRGLEWLGRTYYRSKWYSDYAVSVKSRITITPDTSKNQFSLHLNSVTPEDTAVYYCARAGVRIFGVIVDSLDYWGQGTLVTVSS
VL: AIQLTQSPSSLSASVGDRVTITCRASQALNSYLAWYQQKPGKAPKLLIFAASTLQSGVPSRFSGSGSGTDFTLTISSLQPEDFATYYCQLSKTFGPGTRVDIE
binds: [1] | [2] | [3]

B2: L5A7.2 (antibody, V domains shown)
VH: B1 VH with S42T, H85R, I106V
VL: B1 VL with A28G, L29F, N30S, K45Q, F49Y, L90Q
binds: [1] | [2] | [3]

B3: L5A7.4 (antibody, V domains shown)
VH: QVQLQQSGPRLVKPSQTLSLTCAISGDSVSSTSAAWDWIRQSSSRGLEWLGRTYYRSRWYHDYEESVKSRITINADTSKNQFSLQLASVTPEDTAVYYCARAGIRVFGIIVDSLDYWGQGSLVTVSS
VL: B1 VL with A28G, L29F, K45E, F49Y, L90Q, R99K, E103K
binds: [1] | [2] | [3]

B4: L5A7.3 (antibody, V domains shown)
VH: B1 VH with S33T, K58R, V65D, V104I, V109I
VL: B1 VL with A28G, L29A, F49Y, T72S, L90E
binds: [1] | [2] | [3]
